Laboratory results: patent US12467929

What was measured:
[1] = molecular target: recombinant UBE3A protein (Homo sapiens (Human)) (UniProt Q05086); assay: 3-step Simoa; capture GTX; UBE3A 125 ng/ml
[2] = molecular target: recombinant UBE3A protein (Homo sapiens (Human)) (UniProt Q05086); assay: 2-step Simoa; capture GTX; UBE3A 7.81 ng/ml
[3] = molecular target: recombinant UBE3A protein (Homo sapiens (Human)) (UniProt Q05086); assay: 3-step Simoa; capture GTX; UBE3A 7.81 ng/ml
[4] = molecular target: recombinant UBE3A protein (Homo sapiens (Human)) (UniProt Q05086); assay: Simoa; capture GTX; SBG 100 pm; UBE3A 0.0320 ng/ml
[5] = molecular target: recombinant UBE3A protein (Homo sapiens (Human)) (UniProt Q05086); assay: Simoa; capture GTX; 3E5 0.2 ug/ml; UBE3A 20.0 ng/ml
[6] = molecular target: recombinant UBE3A protein (Homo sapiens (Human)) (UniProt Q05086); assay: Simoa; capture GTX; 3E5 0.1 ug/ml; UBE3A 0.160 ng/ml
[7] = molecular target: recombinant UBE3A protein (Homo sapiens (Human)) (UniProt Q05086); assay: Simoa; capture GTX; 3E5 0.2 ug/ml; UBE3A 0.160 ng/ml
[8] = molecular target: recombinant UBE3A protein (Homo sapiens (Human)) (UniProt Q05086); assay: Simoa; capture GTX; 3E5 0.1 ug/ml; UBE3A 0.00640 ng/ml
[9] = molecular target: recombinant UBE3A protein (Homo sapiens (Human)) (UniProt Q05086); assay: Simoa head-to-head, Table 11; capture GTX; UBE3A 500 ng/ml
[10] = molecular target: recombinant UBE3A protein (Homo sapiens (Human)) (UniProt Q05086); assay: Simoa head-to-head, Table 11; capture GTX; UBE3A 20.0 ng/ml
[11] = molecular target: recombinant UBE3A protein (Homo sapiens (Human)) (UniProt Q05086); assay: Simoa head-to-head, Table 10; capture MS 2F6; UBE3A 500 ng/ml
[12] = molecular target: recombinant UBE3A protein (Homo sapiens (Human)) (UniProt Q05086); assay: Simoa head-to-head, Table 10; capture MS 2F6; UBE3A 20.0 ng/ml
[13] = molecular target: recombinant UBE3A protein (Homo sapiens (Human)) (UniProt Q05086); assay: Simoa head-to-head, Table 11; capture MS 2F6; UBE3A 0.16 ng/ml
[14] = molecular target: recombinant UBE3A protein (Homo sapiens (Human)) (UniProt Q05086); assay: 3-step Simoa, 120 min bead step; capture GTX; UBE3A 0.00640 ng/ml
[15] = molecular target: recombinant UBE3A protein (Homo sapiens (Human)) (UniProt Q05086); assay: Simoa; capture GTX + helper beads; 3E5 0.1 ug/ml; UBE3A 20.0 ng/ml
[16] = molecular target: recombinant UBE3A protein (Homo sapiens (Human)) (UniProt Q05086); assay: Simoa; capture GTX + helper beads; 3E5 0.4 ug/ml; UBE3A 0.800 ng/ml
[17] = molecular target: recombinant UBE3A protein (Homo sapiens (Human)) (UniProt Q05086); assay: Simoa; capture GTX, no helper beads; 3E5 0.2 ug/ml; UBE3A 4.00 ng/ml
[18] = molecular target: recombinant UBE3A protein (Homo sapiens (Human)) (UniProt Q05086); assay: Simoa; capture GTX, no helper beads; 3E5 0.4 ug/ml; UBE3A 20.0 ng/ml
[19] = molecular target: recombinant UBE3A protein (Homo sapiens (Human)) (UniProt Q05086); assay: Simoa; capture GTX, no helper beads; 3E5 0.1 ug/ml; UBE3A 0.800 ng/ml
[20] = molecular target: recombinant UBE3A protein (Homo sapiens (Human)) (UniProt Q05086); assay: Simoa; capture GTX, no helper beads; 3E5 0.2 ug/ml; UBE3A 0.0320 ng/ml
[21] = molecular target: recombinant UBE3A protein (Homo sapiens (Human)) (UniProt Q05086); assay: Simoa; capture GTX, no helper beads; 3E5 0.1 ug/ml; UBE3A 0.00640 ng/ml

Chain of UniProt Q05086 (Q05086 whole entry): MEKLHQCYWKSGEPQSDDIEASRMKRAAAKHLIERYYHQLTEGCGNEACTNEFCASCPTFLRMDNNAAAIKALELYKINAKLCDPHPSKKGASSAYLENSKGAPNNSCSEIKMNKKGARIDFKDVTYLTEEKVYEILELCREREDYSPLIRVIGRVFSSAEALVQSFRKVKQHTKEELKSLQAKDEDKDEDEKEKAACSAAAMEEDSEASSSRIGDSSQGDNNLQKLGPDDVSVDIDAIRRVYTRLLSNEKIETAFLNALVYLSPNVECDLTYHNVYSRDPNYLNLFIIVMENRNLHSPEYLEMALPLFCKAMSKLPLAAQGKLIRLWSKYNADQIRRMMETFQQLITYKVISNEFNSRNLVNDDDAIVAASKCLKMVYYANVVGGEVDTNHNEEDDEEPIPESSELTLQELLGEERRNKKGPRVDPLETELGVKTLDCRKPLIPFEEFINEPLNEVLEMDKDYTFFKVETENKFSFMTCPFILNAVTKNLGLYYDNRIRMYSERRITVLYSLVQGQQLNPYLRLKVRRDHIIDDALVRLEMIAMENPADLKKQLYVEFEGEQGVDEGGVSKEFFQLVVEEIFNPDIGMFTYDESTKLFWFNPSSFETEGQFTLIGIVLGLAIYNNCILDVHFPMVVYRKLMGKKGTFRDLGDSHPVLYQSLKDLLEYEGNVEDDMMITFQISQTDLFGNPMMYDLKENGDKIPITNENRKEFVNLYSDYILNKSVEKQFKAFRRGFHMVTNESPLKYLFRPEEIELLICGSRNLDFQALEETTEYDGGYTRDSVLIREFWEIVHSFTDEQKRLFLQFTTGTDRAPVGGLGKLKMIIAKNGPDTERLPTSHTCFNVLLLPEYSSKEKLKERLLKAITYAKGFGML

## NB500-240 (Novus) (antibody)
[1]
  AEB1: 0.122
  AEB2: 0.122
  Ave AEB: 0.122
  Signal to Background: 55.8
[2]
  AEB1: 0.058
  AEB2: 0.0481
  Ave AEB: 0.053
  Signal to Background: 16.2
[3]
  AEB1: 0.0143
  AEB2: 0.0128
  Ave AEB: 0.0135
  Signal to Background: 6.2

## anti-UBE3A antibody 3E5 (SAB1404508-100 ug, Millipore-Sigma)
[4]
  AEB1: 0.0199
  AEB2: 0.0201
  AEB3: 0.0192
  Average AEB: 0.0197
  Signal to Background: 2.35
[5]
  AEB1: 6.38
  AEB2: 6.95
  AEB3: 6.77
  Average AEB: 6.7
  Signal to Background: 171
[6]
  AEB1: 0.0828
  AEB2: 0.0846
  Average AEB: 0.0837
  Signal to Background: 4.34
[7]
  AEB1: 0.125
  AEB2: 0.123
  AEB3: 0.121
  Average AEB: 0.123
  Signal to Background: 3.14
[8]
  AEB1: 0.0251
  AEB2: 0.0238
  AEB3: 0.0256
  Average AEB: 0.0248
  Signal to Background: 1.29
[9]
  AEB1: 9.97
  AEB2: 10.3
  Ave AEB: 10.1
  Signal to Background: 1240
[10]
  AEB1: 0.78
  AEB2: 0.821
  Ave AEB: 0.8
  Signal to Background: 97.8
[11]
  AEB1: 11
  AEB2: 10.9
  Ave AEB: 10.9
  Signal to Background: 809
[12]
  AEB1: 0.514
  AEB2: 0.552
  Ave AEB: 0.533
  Signal to Background: 39.4
[13]
  AEB1: 0.0071
  AEB2: 0.0078
  Ave AEB: 0.0074
  Signal to Background: 1.96
[14]
  AEB1: 0.0054
  AEB2: 0.0055
  Ave AEB: 0.0055
  Signal to Background: 3.22
[15]
  AEB1: 3.37
  AEB2: 3.48
  Average AEB: 3.42
  Signal to Background: 597
[16]
  AEB1: 0.341
  AEB2: 0.333
  Average AEB: 0.337
  Signal to Background: 17.2
[17]
  AEB1: 0.878
  AEB2: 0.851
  Average AEB: 0.864
  Signal to Background: 89.4
[18]
  AEB1: 6.8
  AEB2: 6.32
  Average AEB: 6.56
  Signal to Background: 336
[19]
  AEB1: 0.164
  AEB2: 0.157
  Average AEB: 0.16
  Signal to Background: 27.9
[20]
  AEB1: 0.0229
  AEB2: 0.0244
  Average AEB: 0.0236
  Signal to Background: 2.44
[21]
  AEB1: 0.0087
  AEB2: 0.0092
  Average AEB: 0.0089
  Signal to Background: 1.56
